# Reference: patent US5077204A, “Yeast endopeptidase for basic amino-acid site cleavage, preparation and use” (Chiron Corporation, priority 1988, dated 1991)
# T1: KEX2 endopeptidase (kex2[YEp24-pJ2B] membranes) (Saccharomyces cerevisiae, UniProt P13134)
# T1 construct: not only includes the KEX2 gene, but also the necessary transcriptional and translational regulatory signals for expression in yeast; expressed in transfected cells; host or cells: S. cerevisiae XBH16-15A (MATalpha kex2-1) carrying YEp24-pJ2B
# T1 sequence (P13134 114-814): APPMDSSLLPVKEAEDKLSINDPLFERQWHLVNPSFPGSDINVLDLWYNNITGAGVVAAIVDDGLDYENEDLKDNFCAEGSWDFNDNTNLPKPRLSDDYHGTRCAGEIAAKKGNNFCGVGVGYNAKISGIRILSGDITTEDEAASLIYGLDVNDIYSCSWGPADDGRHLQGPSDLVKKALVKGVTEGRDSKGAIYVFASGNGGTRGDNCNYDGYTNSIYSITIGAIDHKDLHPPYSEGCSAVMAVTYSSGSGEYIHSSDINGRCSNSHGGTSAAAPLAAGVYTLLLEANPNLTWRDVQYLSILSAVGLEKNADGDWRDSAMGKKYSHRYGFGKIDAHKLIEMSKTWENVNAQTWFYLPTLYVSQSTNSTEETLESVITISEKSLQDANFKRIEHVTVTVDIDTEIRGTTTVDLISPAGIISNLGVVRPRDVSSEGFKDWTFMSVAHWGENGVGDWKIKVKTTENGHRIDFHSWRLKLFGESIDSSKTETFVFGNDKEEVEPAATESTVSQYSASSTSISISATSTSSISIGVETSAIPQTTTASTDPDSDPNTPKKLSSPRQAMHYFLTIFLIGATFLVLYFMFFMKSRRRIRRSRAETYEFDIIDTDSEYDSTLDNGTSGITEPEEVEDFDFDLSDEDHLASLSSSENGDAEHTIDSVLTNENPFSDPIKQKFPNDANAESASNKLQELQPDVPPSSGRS
# Columns and labels:
# [1] = system: human proinsulin (alpha-factor leader-proinsulin fusion); assay: Processing of proinsulin in yeast transformed with KEX2 containing vectors; format: cell-based, yeast strains AB109 and AB103.1; settings: yeast transformed with pYBCA5-KEX2 versus pYBCA5; cleavage between alpha-factor leader and proinsulin, B/C and C/A junctions
# Source text: Plasmids containing proinsulin and KEX2 genes (pYBCA5-KEX2 or pYBCA5-KEX4) or control plasmids with only proinsulin sequences (pYBCA5) or no insert (pCl/1) were used to transform kex2^- mutant yeast strain AB109 (Matα, kex2-1, ade2-1, his^-, leu2-3,112, trpl^-289, ura3-25 ura3-52, (KIL-k), cir° ) or KEX2^+ yeast strain AB103.1 (matα, pep4-3, leu2-3, leu2-112, ura3-52, his4-580, cir° ) following the procedure of Hinnen et al., Proc. Natl. Acad. Sci. USA (1978) 75:1929-1933. Transformants were grown in a low sulfate medium (LSM) containing 0.1 mM (NH4)2 SO4 until mid-exponential phase (OD660 nm 1-3), collected by centrifugation and resuspended in LSM containing 0.25 mCi of carrier free [ ^35 S]SO4^2- at an OD660 =2. After 10 min incubation, a 50-fold excess of (NH4)2 SO4 was added and cells were further incubated for 15-30 min. After centrifugation, proteins present in the cell free extract were precipitated with 12% trichloroacetic acid, 0.5 mg/ml deoxycholate. The precipitate was resuspended, reduced and alkylated and submitted to protein acrylamide gel electrophoresis (Laemmli, Nature (1970) 227:680). Gels were fixed, fluorographed, dried and exposed to Kodak XAR-5 film at -70° C.
# [2] = target: T1, KEX2 endopeptidase (kex2[YEp24-pJ2B] membranes); assay: Endopeptidase activity in membranes from kex2 cells carrying multicopy plasmid pJ2B (over-produced specific endopeptidase); format: biochemical, S. cerevisiae
# Description: Permeabilization of whole yeast cells with the non-ionic detergent Brij 58, preparation of crude membrane fractions, and measurement of protein concentration were conducted by the methods described previously (Julius et al., 1983, supra), incorporated herein by reference. To measure peptidase activity, samples of permeabilized cells or membrane material were added to a reaction mixture containing 0.1-0.5 mM fluorogenic peptide substrate (added from a 20 mM stock dissolved in DMSO) and 200 mM HEPES-Tris (pH 7.0), in a final volume of 0.4 ml. Following incubation for 30 min at 37° C., whole cells were removed by centrifugation in a microfuge (Eppendorf) and membrane material was removed by Ba(OH)2 -ZnSO4 precipitation. The amount of fluorescence formed in the supernatant solution was determined in a fluorescence spectrophotometer (Perkin-Elmer, Model MPF-44B), set either at an excitation wavelength of 335 nm and an emission wavelength of 410 nm (for measurement of β-naphthylamine) or at an excitation wavelength of 380 nm and an emission wavelength of 460 nm (for measurement of 7-amino-4-methyl-coumarin, AMC). To determine the number of moles of substrate hydrolyzed, the fluorescence yield of samples was compared to a standard curve prepared with known concentrations of authentic AMC dissolved in the same buffer.
# Cells of strain XBH1615A that had been transformed with the plasmids
# indicated, or that contained pJ2B in integrated form, were grown in SCUra
# and membranes were prepared as described in the Experimental.
# Endopeptidase activity was assayed as described in the Experimental. All
# substrates tested were present at 0.1 mM.
# Endopeptidase activity was assayed using Boc--GlnArgArg--MCA as the
# substrate, as outlined in the Experimental. All inhibitors were added fro
# a 0.1 M stock dissolved in dimethyl sulfoxide.
molecule,measurement,setting,value
"KEX2 endopeptidase: yeast endopeptidase, product of the KEX2 gene, cleaving on the carboxyl side of a pair of basic amino acids (protein, UniProt P13134 114-814, looked up) Kexin: APPMDSSLLPVKEAEDKLSINDPLFERQWHLVNPSFPGSDINVLDLWYNNITGAGVVAAIVDDGLDYENEDLKDNFCAEGSWDFNDNTNLPKPRLSDDYHGTRCAGEIAAKKGNNFCGVGVGYNAKISGIRILSGDITTEDEAASLIYGLDVNDIYSCSWGPADDGRHLQGPSDLVKKALVKGVTEGRDSKGAIYVFASGNGGTRGDNCNYDGYTNSIYSITIGAIDHKDLHPPYSEGCSAVMAVTYSSGSGEYIHSSDINGRCSNSHGGTSAAAPLAAGVYTLLLEANPNLTWRDVQYLSILSAVGLEKNADGDWRDSAMGKKYSHRYGFGKIDAHKLIEMSKTWENVNAQTWFYLPTLYVSQSTNSTEETLESVITISEKSLQDANFKRIEHVTVTVDIDTEIRGTTTVDLISPAGIISNLGVVRPRDVSSEGFKDWTFMSVAHWGENGVGDWKIKVKTTENGHRIDFHSWRLKLFGESIDSSKTETFVFGNDKEEVEPAATESTVSQYSASSTSISISATSTSSISIGVETSAIPQTTTASTDPDSDPNTPKKLSSPRQAMHYFLTIFLIGATFLVLYFMFFMKSRRRIRRSRAETYEFDIIDTDSEYDSTLDNGTSGITEPEEVEDFDFDLSDEDHLASLSSSENGDAEHTIDSVLTNENPFSDPIKQKFPNDANAESASNKLQELQPDVPPSSGRS",Processing of proinsulin (autoradiography of secreted insulin-related bands),[1],able to process proinsulin at specific cleavage sites
same,pH optimum,[2],7.0-7.5
same,Activity at pH 5.0,[2]; pH 5.0,little activity detected
same,Activity at pH 8.5,[2]; pH 8.5,about half-maximal activity
